Here are results for 2 molecules from PMC2929457 (Nature structural & molecular biology, 2010).

The experiment has as its target T1, His-SUMOSTAR-FANCD2(1-762) (Drosophila melanogaster) (Drosophila melanogaster, UniProt Q8MYL1 1-762).
T1 sequence (looked up): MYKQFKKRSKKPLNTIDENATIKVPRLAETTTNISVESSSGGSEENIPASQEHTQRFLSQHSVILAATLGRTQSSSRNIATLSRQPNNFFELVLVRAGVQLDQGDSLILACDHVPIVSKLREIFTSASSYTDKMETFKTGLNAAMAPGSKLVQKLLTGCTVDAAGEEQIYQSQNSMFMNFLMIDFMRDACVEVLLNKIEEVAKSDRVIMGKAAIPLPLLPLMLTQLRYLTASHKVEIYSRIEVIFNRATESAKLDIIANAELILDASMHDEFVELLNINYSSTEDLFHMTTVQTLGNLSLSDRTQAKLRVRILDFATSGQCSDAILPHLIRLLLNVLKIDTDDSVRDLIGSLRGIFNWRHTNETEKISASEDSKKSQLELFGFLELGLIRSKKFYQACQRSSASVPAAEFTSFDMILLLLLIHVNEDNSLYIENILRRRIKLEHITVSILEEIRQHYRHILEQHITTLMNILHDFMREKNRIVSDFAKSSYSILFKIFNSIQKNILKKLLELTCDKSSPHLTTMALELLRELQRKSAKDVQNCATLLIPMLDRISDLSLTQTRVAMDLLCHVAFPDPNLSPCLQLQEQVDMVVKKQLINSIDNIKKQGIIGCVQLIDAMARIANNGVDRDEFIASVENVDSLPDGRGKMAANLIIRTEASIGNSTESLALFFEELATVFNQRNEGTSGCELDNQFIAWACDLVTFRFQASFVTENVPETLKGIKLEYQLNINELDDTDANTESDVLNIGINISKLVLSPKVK
The experiment can be described thus: pull-down.

B1: FANCL DRWD-RING (residues 105-381) (domain or fragment, Drosophila melanogaster, UniProt Q8T913 105-381, looked up)
chain: LCREGNIYYDILALYKSNEYCLQVDEACSMIRFSEFTDFEQHYLELKIPSLLLLDHSLPDCVSLGEMLTKSAGNLEEALNLFRKLLEDLRPFYDNFMDIDELCHVLQPSPISSKHKTRLFPLKDRVYLKLTIADPFACIASMSLKIIGPTEEVARLRHVLSDGLSNWDSEMNIHKNLLRMFDLCYFPMPDWSDGPKLDEEDNEELRCNICFAYRLDGGEVPLVSCDNAKCVLKCHAVCLEEWFKTLMDGKTFLEVSFGQCPFCKAKLSTSFAALLND
Regarding B1, the binding result is “binds”.

B2: Drosophila melanogaster FANCL, full length (enzyme, UniProt Q8T913 1-381, looked up)
chain: MESNEDVERLLCQKYPGLAAELQPSGACIIRGVLGSEDTWRRLKLYLPHHPALHGFQLYVQESLEYKLYTSANLKLQDDWLLEDFLDHLPKILPAQKAPTVPKELCREGNIYYDILALYKSNEYCLQVDEACSMIRFSEFTDFEQHYLELKIPSLLLLDHSLPDCVSLGEMLTKSAGNLEEALNLFRKLLEDLRPFYDNFMDIDELCHVLQPSPISSKHKTRLFPLKDRVYLKLTIADPFACIASMSLKIIGPTEEVARLRHVLSDGLSNWDSEMNIHKNLLRMFDLCYFPMPDWSDGPKLDEEDNEELRCNICFAYRLDGGEVPLVSCDNAKCVLKCHAVCLEEWFKTLMDGKTFLEVSFGQCPFCKAKLSTSFAALLND
For B2, the binding result is reported as “binds”.
